B1: hLAL: human lysosomal acid lipase expressed from a doxycycline-controlled tissue-specific transgene in lal−/− mice; never administered as a protein (protein)
chain: GPKPVVFLQHGLLADSSNWVTNLANSSLGFILADAGFDVWMGNSRGNTWSRKHKTLSVSQDEFWAFSYDEMAKYDLPASINFILNKTGQEQVYYVGHSQGTTIGFIAFSQIPELAKRIKMFFALGPVASVAFCTSPMAKLGRLPDHLIKDLFGDKEFLPQSAFLKWLGTHVCTHVILKELCGNLCFLLCGFNERNLNMSRVDVYTTHSPAGTSVQNMLHWSQAVKFQKFQAFDWGSSAKNYFHYNQSYPPTYNVKDMLVPTAVWSGGHDWLADVYDVNILLTQITNLVFHESIPEWEHLDFIWGLDAPWRLYNKIINLMRKYQ
modifications: left off: small tags and cut ends
notes: human lysosomal acid lipase expressed from a doxycycline-controlled tissue-specific transgene in lal−/− mice; never administered as a protein

Legend:
[1] = tested on: B16 melanoma cells; experiment: In vitro migration (wound healing) assay with pre-treated MDSCs; assay type: cell-based, mouse; conditions: co-culture with pre-treated lal−/− Ly6G+ cells; 24 hours; mitomycin C
Procedure: In vitro wound healing assay was performed to analyze B16 melanoma cell migration. Briefly, B16 melanoma cells were seeded at a density of 1.5×10^5 cells/well into a 24-well plate and incubated overnight to form a confluent monolayer. Scratch was created by scraping the cell monolayer in a straight line with a p200 pipet tip. After washing 3 times with DMEM, the medium was changed with DMEM containing 10% FBS and 5 μg/mL mitomycin C (Sigma-Aldrich, St. Louis, Mo., USA), and MDSCs pre-treated with 9-HODE or ethanol for 24 hours were added onto B16 melanoma cell monolayer at a density of 1×10^6 cells/well. Images were taken at 0 and 24 hours after creating the scratch. Migration was estimated by measuring the distances from one side of scratch to the other side using Image Pro-Plus software (Media Cybernetics, Rockville, Md., USA).

[2] = tested on: Ly6G+ MDSCs; experiment: Transwell assay of MDSC transendothelial migration; assay type: cell-based, mouse; conditions: lal−/− Ly6G+ cells pre-treated 20 μmol/L 48 hours; four hours; vs ethanol
Procedure: (§1) Transwell assay was used to determine MDSC transendothelial migration. SVECs were added to the upper chamber of 24-well 8.0-μm-pore Transwell plates (Corning, Corning, N.Y., USA), and incubated at 37° C., 5% CO2 for 48 hours to form an EC monolayer. The supernatant was then removed, and CellTracker™ Green 5-Chloromethylfluorescein Diacetate (CMFDA) (Invitrogen, Grand Island, N.Y., USA)-labeled MDSCs (2×10^4 cells in 200 μL media) were added to the upper well. After 4 hours, transendothelial migration of MDSCs was determined by counting their numbers in the lower chamber under 5 random microscopic fields.

[3] = tested on: pulmonary endothelial cells (ECs); experiment: In vitro BALF treatment of pulmonary endothelial cells (proliferation, wound healing); assay type: cell-based, mouse
Procedure: ECs were isolated from lal^+/+ lungs and cultured in vitro. Briefly, the mouse was anesthetized and 1 mL collagenase A (2 mg/mL, Roche, Indianapolis, Ind., USA) was infused into the lung through the trachea. The lung was removed and then incubated with 10 mL collagenase A at 37° C. for 30 minutes. After the incubation, the resulting cell suspension was filtered through a 40 μm strainer and centrifuged for 5 minutes at 1,500 rpm. After removal of the supernatant, the cell pellet was subjected to magnetic bead sorting using anti-CD31 microbeads (Miltenyi Biotec., Auburn, Calif., USA) according to the manufacturer's protocol. The resulting cells were plated onto gelatin-coated (Sigma-Aldrich) 6-well plates and maintained in DMEM supplemented with endothelial cell growth supplement, heparin, L-Glutamine (Sigma-Aldrich), FBS, and Antibiotic-Antimycotic (Gibco).
To examine the effect of BALF on EC proliferation, 5×10^4 ECs were seeded into a well of 24-well plates in 250 μL DMEM supplemented with 10% FBS, and then treated with 250 μL BALF harvested from lal^+/+, lal^−/− or CCSP-Tg/KO triple mice. Seventy-two hours later, the number of ECs was counted.
To analyze the effects of BALF on tumor cell or EC migration, in vitro wound healing assays were performed. […]

[4] = tested on: B16 melanoma cells; experiment: B16 melanoma metastasis in CCSP-Tg/KO mice; assay type: in vivo, mouse; conditions: lung epithelial-specific expression in lal−/− mice; 5×10^5 cells i.v., two weeks
Procedure: For the tumor metastasis model, 5×10^5 B16 melanoma cells in 200 μL PBS were injected into the mice via tail vein. Two weeks after the injection, the mice were sacrificed and the lungs were harvested for examination of metastasis.

[5] = tested on: cytokines and chemokines; experiment: Cytokines and chemokines in plasma (ELISA) and liver (qPCR) of LAP-Tg/KO mice; assay type: in vivo, mouse
Procedure: Total RNAs were purified from livers or isolated hepatocytes using RNeasy Mini Kits according to the manufacturer's instruction (Qiagen). Quantitative real-time RT-PCR (qPCR) was performed as described in Wu et al., Blood 2012, 119:115-126). Relative gene expression levels were analyzed using the 2^−ΔΔCT method. Primers of mouse IL-6, mouse granulocyte-macrophage colony-stimulating factor (GM-CSF), mouse macrophage colony-stimulating factor, mouse tumor necrosis factor (TNF)-α, mouse IL-2, mouse IL-4, mouse IL-17, mouse interferon (IFN)-γ, mouse monocyte chemotactic protein-1 (MCP-1), mouse chemokine ligand (CCL)-3, mouse CCL4, mouse CCL5, mouse CXCL10, and glyceraldehyde-3-phosphate dehydrogenase for qPCR were described in Qu et al. Cancer Res 2009, 69:7252-7261; Zhao et al., Oncogene 2014, 34:1938-1948.
The expression levels of IL-6, GM-CSF, MCP-1 (BD Bio-sciences), and CCL5 (R&D Systems, Minneapolis, Minn.) in the plasma and hepatocyte culture medium were measured using enzyme-linked immunosorbent assay (ELISA) kits according to the manufacturer's instructions.

[6] = tested on: bone marrow cells; experiment: Transwell assay of bone marrow cell transendothelial migration towards BALF; assay type: cell-based, mouse; conditions: BALF from doxycycline-treated CCSP-Tg/KO mice in lower chamber; 4 hours
Procedure: as §1, with “cell” for “MDSC”, “ECs” for “SVECs”, “CELLTRACKER™” for “CellTracker™”, “bone marrow cells (1×10^4” for “MDSCs (2×10^4”, “bone marrow cells” for “MDSCs”

[7] = doxycycline-untreated LAP-Tg/KO triple mice (hLAL on)

Molecule	B16 melanoma cell migration into wound area [1]	Ly6G+ cells migrated across endothelial monolayer [2]	EC migration (wound healing) ([3]; BALF from doxycycline-treated CCSP-Tg/KO mice, 15 hours, mitomycin C)	EC proliferation ([3]; lal+/+ ECs with BALF from doxycycline-treated CCSP-Tg/KO mice, 72 hours)	B16 melanoma cell metastasis in the lung [4]	liver IL-4 and IL-17 mRNA levels [5, 7]	liver mRNA levels of IL-2 and IFN-γ [5, 7]	liver mRNA levels of IL-6, GM-CSF, M-CSF and TNF-α [5, 7]	liver mRNA of chemokines MCP-1, CCL3, CCL4, CCL5 and CXCL10 [5, 7]	plasma concentrations of IL-6, GM-CSF, MCP-1 and CCL5 (ELISA) ([5]; untreated (hLAL on) vs doxycycline-treated LAP-Tg/KO mice)	bone marrow cell transendothelial migration [6]
9-hydroxyoctadecadienoic acid [9-HODE]	delayed migration towards the scratch	less Ly6G^+ cells in the lower chamber	–	–	–	–	–	–	–	–	–
B1	–	–	decreased EC migration	decreased EC proliferation	reduced B16 melanoma cell metastasis	unchanged	reduced mRNA levels	significantly down-regulated	markedly down-regulated	decreased	decreased bone marrow cell transendothelial migration
